The DeepSol protein solubility set

Test: soluble on expression in E. coli; label from the status in PepcDB or PDB records

## MSLKIAIVGSGNGAVTAAVDMVDKGHDVRLYCRNESISKFDVALEKGGFDFNNEGEEKFIEFTDISDDMEYVLDGADIVQVIIPSSFIEYYAKVMSKFVTNDHLIFFNIAASMGSIRFMNVLEDRHIDVHPHFAEANTLTYGTRVDFNNAKVDLSLNVRRVFFSTFDRSELNESYEKVSKIYDYLVKEESLLKTNLENGNPEVHPGPTLLNVGRIDYSEEFSLYKEGITKHTVRLLHAIEIERLNLGRKLGFELSTAKESRIQRGYLERKDEDEPLNRLFNTSPVFSQIPGPNHVENRYLTEDIAYGLVLWSSLGRVIDVPTPNIDAVIMIASTILERDFFEEGLTIEELGLDKLGLEEGHHHHHH
  soluble on expression in E. coli: soluble

## MGSDKIHHHHHHMHIRKYDHDYSRRFFMEQAAKGIATAGVLGPLWPMIANSADITKAYPDELMSIDAWSKGKIKTGDFITAENVDIVKDLLDPVAYQEVKTMGRRIRIVPTTKDVTRMFPHEYLEATLRNQGKAKFDAGGNIVSPDGKPWIGGNPFPDAKTGVEVAANLTLCWGRHDNSIYAIRDWEIAPDGSQSYQYDFAWVEENSVARAQAKSFPGGEDKLRYQAVFFTSPVDVKGTSYLSTWYYDQRKFPDLSGYLPAFKRVRKFPTNQRFEPLVAGVNFYLSDAWASGDPMLTWGNYKIVGRGPMLGAQSQTWYGDHPNWERPVHGGPKGITFFDTNMELCPDVVVFEAEPVGYPRAPVSKKRVWVDTRNMMFVAYVTYDRRGDLFKSFEPQFSLYEKGDKKLMDGSHTAWSWTAVTCHNIQDGRMTRFLQTKSIAGGVSQGYNVEGTFDKYLTEQALQRLGT
  soluble on expression in E. coli: not soluble

## MIEFVYPHTQLVAGVDEVGRGPLVGAVVTAAVILDPARPIAGLNDSKKLSEKRRLALYEEIKEKALSWSLGRAEPHEIDELNILHATMLAMQRAVAGLHIAPEYVLIDGNRCPKLPMPAMAVVKGDSRVPEISAASILAKVTRDAEMAALDIVFPQYGFAQHKGYPTAFHLEKLAEHGATEHHRRSFGPVKRALGLAS
  soluble on expression in E. coli: soluble

## MDLMEEMWISRPQRRMTKLSDLSDGSIARIKFYNANKEYTVDSFKIMFAEYQKSIYCNQEVIGVCHSISDYSYIVDYINNSHFRNELDIFTPEFDKKRTHHITSHKSDKDTLQVRVISNEGVIKSYDMSAIEITFEKMYHIIDKERNGYRSGQL
  soluble on expression in E. coli: not soluble

## MSLLRQRFVFDTTALTDSQAWESEGCTTLCEGMSAILHRVAQARLHLGISCYVPYPSVYNEIRDFVRNNNCDIAILGKIDTWLVKKTPDRYRVKIPSKIFYEYVDYMRSRINKGMNVSEEAIWEAVSRCLSISATGEGREQMREEIEREVVGSIIRKFREKYRAALRYGILDSAPDIDVLLLAKDLDAAVVSQDLGIQRWAEQLGLRFMEARAFPQMVREYMSFVPLHTEELEDRMVEGHHHHHH
  soluble on expression in E. coli: soluble

## MQVDYQQLNGIALAYLGDAVYEPFIRQHLIESGFTKATKLHHHATHYVSAKAQAALIERMQAEEVLTPTEVDVFKRGRNAKSHTSAKHTDVVTYRISTGFEAVFGYLQLTQQADRIAELAQWCIKQVDEGRVSSVKLEHHHHHH
  soluble on expression in E. coli: soluble

## VPMDELNERIFKEVVMYLRQHIKNYDNILDALRSTFHSTNHVEKLFFGGKINMLNQPEFHDITRVRSLLSLIEKEQDVLKLVQSPHTGISIKIGKENDYEEMENCSLITASYSVDQKQIGSIAIIGPTRMNYSRVVSLLQHVTSDLSKALTSLYDE
  soluble on expression in E. coli: not soluble

## LDNPFYYLENFRQVLGWIAQRYDDLLDASERRFITEFAGLPMPAQGLLVRMVMRKGVMFRASKLSYAEIGDPHQAVLPLLQQDWVDTSPPLGLSELFQLLRRDELSQCFKAHAVKGPERKHEWLERLQPLYETAQPLEQWHPLLPDAVFGLKIMPLCDRLRLLYFGNLYQEWSEFVLADLGIYRYEKVEFSADSRGINQRDDINVCLQLHACREALETCVELHALAERAIAIECSNPWLNMRRAKLLYRIGQHAERLQDWPLALSVYRQSNYPGARSRQIRVLERNAEYTEAMALVEQAGLAPESDAEVQHLSRGTPRLQRKLGLTAARRPAARVVSRLDVQVTPSPGTSVERLIRLHLEEQQGGEVHYVENTLINSLFGLLCWRAIFAPLPGAFFHPFHSAPSDLYSPDFYQRRAALFDECLLQLESNDYRVTIREHFQSKSGLQSPFVFWGALTPQLLEQALHCLPADHLRLWFRRLLQDIKANRTGMPDLIQFFPEQRGYRMIEVKGPGDRLQDNQLRWLDFCAEHGMPVEVCYVQWA
  soluble on expression in E. coli: not soluble

## GNHHHHHMMLIKKIEELKNSEIKDIIDKRIQEFKSFKNKSNEEWFKELCFCILTANFTAEGGIRIQKEIGDGFLTLPREELEEKLKNLGHRFYRKRAEYIVLARRFKNIKDIVESFENEKVAREFLVRNIKGIGYKEASHFLRNVGYDDVAIIDRHILRELYENNYIDEIPKTLSRRKYLEIENILRDIGEEVNLKLSELDLYIWYLRTGKVLK
  soluble on expression in E. coli: soluble

## MGSDKIHHHHHHMETDRLIIMDKLRAMRMFVRVVDAGSFSRVANELNVTTSMISKEIGRLEEDLGVRLLHRSTRGQQLTSIGEGYLKRCRELLVQVDDADAYVQHMQENPRGKLRINAPMALGITDLSQLFSAYMKQYPDVELDIQLGDESLDLIEHGFDLGFRASSQMLDSNYVGKPLVSFTYKVCASASYLESHPPIREVEDLAAHNCFVYSYFKSGNFWPLAQGITVAGSLKVNSTLFMKQVIEDGLGIGFLPSFVAREGIEQGKLVEVLPEVGRPDLTLYALYPNRLFTPPKLLSCIEFLQSWFLSRNLDEGWLQ
  soluble on expression in E. coli: not soluble

## MAHHHHHHMQFGPVVSEAEIRTVQDGIANGVRSDGRSLTQRRPFTVVTNRGSTTHFEGSSVEVHCDGTTVVAAATPSVVELDIDRGQAPRGSLFVNIDAVPAVVEHYAQSVRNNSARYRQAFLSFLATAIRQTFGAQGVTAEERQQQLGIAEAEIIADEGDDEQREDAFGGRGAAEEKPVEETAEQRVDCCGFPGEQLYIGGGYAFRIDVDAHVLQAHGGSLASIVALAVHAALKTVRLPSVTLHEASAGFSLEVNYSKPYATAVNWSRLPVLSVVHVSPTRHYVVDPTRLEELALPQQLRVAVNSFGQVFHMRFQQLPSRRGNAMRLIRSPREEAGKDNSNDNSERDVDGDDVDDSSRRGFDAGVKGTVGGMNMPDMAAVLHAAVHISQAVIAECDEALAGSSG
  soluble on expression in E. coli: not soluble

## MTEHLLAMNQKLKNPDEALSLFGNQDSFLKLMEKDLNLNIITRGETIYVSGDDESFQIADRLLGSLLALIRKGIEISERDVIYAIKMAKKNELEYFESMYEEEITKNAKGKSIRVKTMGQREYVAAMKRNDLVFGIGPAGTGKTYLAVVKAVHALKNGHIKKIILTRPAVEAGESLGFLPGDLKEKVDPYLRPLYDALHDVLGADHTERLMERGIIEIAPLAYMRGRTLDDAYVILDEAQNTTPAQMKMFLTRLGFSSKMIITGDVSQIDLPKGVKSGLAVAKEMLKGIDGISMIELDQTDVVRHPLVAKIIEAYDKQN
  soluble on expression in E. coli: not soluble

## MLENYARFITAASAARNPSPIRTMTDILSRGPKSMISLAGGLPNPNMFPFKTAVITVENGKTIQFGEEMMKRALQYSPSAGIPELLSWLKQLQIKLHNPPTIHYPPSQGQMDLCVTSGSQQGLCKVFEMIINPGDNVLLDEPAYSGTLQSLHPLGCNIINVASDESGIVPDSLRDILSRWKPEDAKNPQKNTPKFLYTVPNGNNPTGNSLTSERKKEIYELARKYDFLIIEDDPYYFLQFNKFRVPTFLSMDVDGRVIRADSFSKIISSGLRIGFLTGPKPLIERVILHIQVSTLHPSTFNQLMISQLLHEWGEEGFMAHVDRVIDFYSNQKDAILAAADKWLTGLAEWHVPAAGMFLWIKVKGINDVKELIEEKAVKMGVLMLPGNAFYVDSSAPSPYLRASFSSASPEQMDVAFQVLAQLIKESL
  soluble on expression in E. coli: soluble

## MGSDKIHHHHHHMMKHRHPQLRFLGATDSVTGSRYLVEAAGKRILVDCGLFQGYKVLRDRNRIPFPVRPDSIDAILLTHAHLDHTGYVPALVRDGFNGPVYATEGTTELCTLLLPDSGHLQEEEAKYAYEHGSSRHSPPVPLYTAADAVRSLDSFREHGFDTPLELGGGIAATFLPAGHILGAAQIRLAVGQHSVHFTGDLGRTDDPLMFPPRGLGAADILVTESTYGNRKHSSLDPELQLGEIITRVAKKNGVIMIAAFAVGRAETLMLHLSRLRSKNAIPDIPVYLNSPMAIDASGMYQRHPDEHRLKQPEYEDMYKVAKMTRTVDDSKLLNLRGGPMVIISASGMLTGGRILHHIAEYGPDPKNAIILSGYQAGGTRGAALAAGVRQLRIYGEDVRIRAEVIQMESLSAHADSDGLIEWMRAAAREPRMTYITHGEPEASDALRIRIKRELGWRVRVPEYLEGISLEDPT
  soluble on expression in E. coli: not soluble

## AHKLFIGGLPNYLNDDQVKELLTSFGPLKAFNLVKDSATGLSKGYAFCEYVDINVTDQAIAGLNGMQLGDKKLLVQRASVGAKNA
  soluble on expression in E. coli: soluble

## SRLSRIDLAVDDFHGLFGREYAKKAYSDDAFRTARAGRAPNGGERLVSEPNGKIINESFEVGSRESRIYWRIYNKAAQLGLDMHWFRNEVELKDMPIDVLLNIEGYFAGLCAYSASIINSLPVKVVTKKRQVALDIHSRIKWARRQVGKTLFDISKHFGGDLERVFGALISKEIHDDSLNLPDSYM
  soluble on expression in E. coli: not soluble

## MAHHHHHHMDYNVSTAAVVLDCGSFHSRAGFGGEKGPRLDVPTLVGYPRHRSIAMAAGMNEQEVGEEALLKQGILDVHHPIRNGFINDWGDVEKLWSHLFFNELRVSPETHCFLLTQPVNTPAAQRERTLEIMMETFHAHSLYLGTSQVLSLYSYGLTTGLVVDSGKDVTHAVPIHEGYALVRHVTQSPVAGAALTRYLGGLLREQGYALGTATEQELLNGAKEDLCYVRPRAHVQRGAVSDIYTPASGTSAGVSPAAASAASRRSTQLTGGIKGSADSASSATATTAVTAKESFMESAAEKHLDVDGGLTPTAVMGATEDFLLPDGQRIPLAAERYDTAEVLFNYSLLALMDSNGKDSSTYEPRCKVRTDMGDLFRPSFEKGISWLPFAAVNNCEAALRPQLYANMVLAGGSTSFPGLKARLESEVRQLYRESHPSEAVVPIQVRDMPCRTYSTWLGGSMLAQTAVFQHLVVSRKEYEEEGARVIHYKSL
  soluble on expression in E. coli: not soluble

## MKAVVPTGKIYLGSPFYSDAQRERAAKAKELLAKNPSIAHVFFPFDDGFTDPDEKNPEIGGIRSMVWRDATYQNDLTGISNATCGVFLYDMDQLDDGSAFEIGFMRAMHKPVILVPFTEHPEKEKKMNLMIAQGVTTIIDGNTEFEKLADYNFNECPSNPVRGYGIY
  soluble on expression in E. coli: soluble

## MGSDKIHHHHHHMRGWILYKETATQLKPEWYEIERLLAAAKADNIELEVYAPDEFDLTVTREDNKSILLNGQPVELPDFIIPRMGSGTTYFALAIIRHLERLGVYCLNPSKAIEIVKDKLFSQQLLAEKNLPTPKTMLVKFPVDIDLVERHLGFPVVIKTLSGSQGSGVFLSHKAREFDDLMQLIEATNKNANIILQEFIANSHGRDLRVFTIGGRVAGCYERRGQEDSFKANVSAGGSARPFDITPEIEWLATQTANILDLDVAGIDLLFDNGHYKICEANSSPGFEGLESCLNVDIAAQILHFIRIRLGMFNKDEKNSDPQLTHAGPALANNVTSSKAAE
  soluble on expression in E. coli: not soluble
